Data published in the supplement of paper PMC9170038.

System: MS2 coat protein
Experiment: apparent KD of MS2 coat protein; designed switch direction (-1 OFF switch, 1 ON switch): -1; higher = weaker reporter binding
Outline: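 Stalled E. coli RNA polymerase transcribed designed RNA switches on Illumina chips, which were then titrated with SNAP-549-labelled MS2 coat protein, doubling from 0.7 or 1.5 nM to 3 µM. Steps lasted from 0.8–1.5 h at the lowest concentration to 10–20 min at the highest. The apparent KD is each design's median over clusters of curve-fitted normalised fluorescence.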

[1] = input ligand: microRNA oligo, concentration not stated
[2] = Eterna round: R95, input ligand: FMN 200 uM
[3] = Eterna round: R95, input ligand: microRNA oligo, concentration not stated
[4] = Eterna round: R95, input ligand: none

Row | Sequence | apparent KD of MS2 coat protein [1] [nM] | apparent KD of MS2 coat protein [2] [nM] | apparent KD of MS2 coat protein [3] [nM] | apparent KD of MS2 coat protein [4] [nM] | apparent KD of MS2 coat protein (input ligand: FMN 200 uM) [nM] | apparent KD of MS2 coat protein (input ligand: none) [nM]
1 | AACAGCACAGGAUAUACAUGAGGAUCACCCAUGUGAGAAUUAAGUGGCGUACCACAAAGUAGAAGGGUGCUGGA [Mat - Exclusion 3 - JL mod - D39] (Eterna round: R96, puzzle: Exclusion 3) | 36 | – | – | – | – | –
2 | UUUUACUCAGGAUAUAUGAUGUGAAACAUGAGGAUCACCCAUGUAAUAUUAUGGAUGUAAAUAGAAGGGAGAUUUA [Mat - Exclusion 5 - JL mod - D16] (puzzle: Exclusion 5) | – | 46.4 | 45.5 | 59.5 | – | –
3 | AGUAACCGUCACGAAAGUGAUGGUUACACAAGCAAAUGUACAUGAGGAUCACCCAUGUCCUCGUUUGCUCGUCUUAU [Sensor 3 - 49] (puzzle: Sensor v3, turn-off variant 2) | – | 26.9 | 96.7 | 31.2 | – | –
4 | UUUAAUUUUUUUUUUUUACAAGCUUUUUGCUCGUCUUAUACAUGAGGAUCACCCAUGUGGGUAAGGGAUAAAUUAUC [JMF 37] (Eterna round: R96, puzzle: Sensor v3, turn-off variant 2) | 51.8 | – | – | – | 65.4 | 59
5 | GCACAGGCAGGAUAUACAUGAGGAUCACCCAUGUGAUCCCUUAAGUACAAAAGUACAAGUAGAAGGGCCUGUGC [Omei Ex3 Model Bachelor's Dilema v43] (Eterna round: R97, puzzle: Exclusion 3) | – | – | – | – | 21.2 | 916
6 | UUAAUACAUGAGGAUCACCCAUGUCAGGAUAUCCGUAUUUCUUAUAUAUAUUUCUAUCGGAGAAGGGACACAUU [lam1] (Eterna round: R97, puzzle: Exclusion 1) | – | – | – | – | 50.9 | 45.4
7 | AUGCCCUGAGGAUAUCUCAUCCCGCACAUGAGGAUCACCCAUGUUCUCCUCCGGGCUCCGAGAGAAGGCAGGCCUA [Armus7] (Eterna round: R97, puzzle: Exclusion 5) | – | – | – | – | 80.1 | 53.5
8 | CUUGUACAUGAGGAUCACCCAUGUUAGGAUAUCUCGCCGUCGGCUUGCCGACGGUAUUAGAGAAGGGACUAGGG [JL Tixe mod 5] (puzzle: Exclusion 1) | – | – | 38.8 | – | – | –
9 | ACGACUGGAGGAUAUGCUCUGGGAGCGAUCGUAUAAGCAGUACUUGAGGAUCACCCAAGUAGAAGGUCAGCUCG [Riorus] (Eterna round: R97, puzzle: Exclusion 2) | – | – | – | – | 140 | 37.6
10 | UUAGGCGUCAUUGCUCGUCUUUUAUGGAGAUGACUGUUAACAUGAGGAUCACCCAUGUGUGUGGGAGCUUUGCAGUU [JR_SV3TOV2_Sub023] (puzzle: Sensor v3, turn-off variant 2) | – | 213 | 568 | 270 | – | –
11 | CAUGAUUUUCGGAAAAUGUACAUGAGGAUCACCCAUGUGACGAGUUACAUGAAAAACAAGCUUUUUGCUCGUCUUAU [Sensor v3 - Turn-off variant 1 - 11] (puzzle: Sensor v3, turn-off variant 1) | – | 102 | 24.8 | 188 | – | –
12 | GUUUUCAGACGGAGAUCCUACAUGAGGAUCACCCAUGUCUCACUAGUUUUUUGCUCGUCUUAUCCUCCUCUGUUCUC [Elimod 29 - Jieux - Sensor, turn-off variant 1] (Eterna round: R97, puzzle: Sensor, turn-off variant 1) | – | – | – | – | 413 | 926
13 | GGCAUCGGAGGAUAUACUUAUGGUGAUACCAGAAGCUUUCUACUUGAGGAUCACCCAAGUAGAAGGCCGAUGCC [jl-ex2.4.86 ViennaUCT mod] (Eterna round: R97, puzzle: Exclusion 2) | – | – | – | – | 17.5 | 26.2
14 | CAUGAUUGGGAAGGAUAUUGACCUAGUUAGCGCCGAGAAGGUCCCUGUCACAUGAGGAUCACCCAUGUGAGUCUGGUGUUCGAG [Ex NG1 #95] (Eterna round: R96, puzzle: Exclusion NG 1) | 17.7 | – | – | – | 29.7 | 21.6
15 | UCGGCGCGAGGAUAUGCGGUUUGUGCUUUGGGCCCUGGCGUACAUGAGGAUCACCCAUGUAGAAGGCGUGUUGC [Apr-15 SS2-49] (puzzle: Exclusion 2) | – | – | 17.9 | – | – | –
16 | AGCGAAAAGACAGGAUAUGAGAAUAGAUAGAGCUCAGAAGGGUCACAUGAGGAUCACCCAUGUAAAGUCUUGAGGCUGCGUGGU [Prohibition 11 - Jieux - Exclusion NG 1] (Eterna round: R96, puzzle: Exclusion NG 1) | 43.4 | – | – | – | 184 | 55.6
17 | AGCUGUGGCCGAGGAUAUCUGUUUCAUAAAACCGAAAUAUAAUCGGACAUGAGGAUCACCCAUGUAGAGAAGGCGGUCUCAGCA [Eli eng2 - 097] (Eterna round: R96, puzzle: Exclusion NG 2) | 12 | – | – | – | – | –

Row | Sequence | apparent KD of MS2 coat protein [1] [nM] | apparent KD of MS2 coat protein [2] [nM] | apparent KD of MS2 coat protein [3] [nM] | apparent KD of MS2 coat protein [4] [nM] | apparent KD of MS2 coat protein (input ligand: FMN 200 uM) [nM] | apparent KD of MS2 coat protein (input ligand: none) [nM]
18 | ACAUGAGGAUCACCCAUGUAAUGAUGGGUACUAUAUUAUUCGUAGGAUAUCGUUGUUAGUUUGUGCGAGAAGGACGUUUGCCUU [JR_ExcNG3_Sub056] (Eterna round: R96, puzzle: Exclusion NG 3) | 667 | – | – | – | 994 | 698
19 | AAUAACAGAGGAUAUACUAUUUUAUGUAUUUAUUAUUUUAAACAUGAGGAUCACCCAUGUAGAAGGCUGAUUAA [JMF 42] (puzzle: Exclusion 2) | – | – | 30.8 | – | – | –
20 | AGAUAGUGGUGAGGAUAUCAGAAUAGAAAGAAAUGAGAAGGCACACAUGAGGAUCACCCAUGUGAGGUCUUGAGACUACAUGGU [Prohibition 40 - Jieux - Exclusion NG 1] (Eterna round: R96, puzzle: Exclusion NG 1) | 12.5 | – | – | – | 21.2 | 17.3
21 | GAUGGACAUGAGGAUCACCCAUGUAAGGAUAUUGAUUGUGGCUAUAAAUAGUUACGGUCAAGAAGGUACUCGUC [-21.6, -18.6 kcal, A 31%] (Eterna round: R97, puzzle: Exclusion 1) | – | – | – | – | 128 | 161
22 | UGUUGUUACGUAGGAUAUCCACCAACAGGUGGAAGGAUAUGGAAACAGAAGGUUCGCCAACAGGCGGAGAAGGACGGGUUAACA [pwkr exNG2 2xF7 2xFMN.22] (Eterna round: R96, puzzle: Exclusion NG 2) | 11.5 | – | – | – | 42.5 | 32.3
23 | AAGAAACAUGAGGAUCACCCAUGUGAGGAUAUGGCCCGCCCGGCGUGAGCUGGAUAAAUCAGAAGGCACAAAGG [salish99_ex1_r4_012] (Eterna round: R97, puzzle: Exclusion 1) | – | – | – | – | 57.2 | 46
24 | UGUAAGGCAGAGGAUAUGGUUACUAGACGAGUACCAGAAGGCUGCACAUGAGGAUCACCCAUGUGAAAUCCACU [Eternabot (L1) Solution 72] (Eterna round: R97, puzzle: Exclusion 6) | – | – | – | – | 80.7 | 34.7
25 | CGUAGUCUUCGGACUACGAACAUGAGGAUCACCCAUGUAAUGAGCAGAUCCUCAUGCAAGCUUUUUGCUCGUCUUAU [Sensor v3 - turn-off variant 1 - 46] (puzzle: Sensor v3, turn-off variant 1) | – | 13.8 | 11.5 | 20.7 | – | –
26 | AAAGAAGAGAGAAAAUAACACAUGAGGAUCACCCAUGUGAGAAGUUGAGGGUGAUACAGGCUUUUUGCUCGUCUUAU (puzzle: Sensor v3, turn-off variant 1) | – | 233 | 263 | 332 | – | –
27 | GCCUCACUUGAGGAUCACCCAAGUCAGGAUAUUCACGGAACUAUGUAGCAGUUCGGCCGGAGAAGGGAUUCGGG [Areses] (Eterna round: R97, puzzle: Exclusion 1) | – | – | – | – | 88.4 | 35
28 | UAUUAGUGAGGAUAUGAGUCGUAGAACAAUAGUACUACGUCUCAGAAGGUACAUGAGGAUCACCCAUGUUCCUC [Fiskers Ex 4 Super Stable 44 mod 32] (puzzle: Exclusion 4) | – | – | 18.9 | – | – | –
29 | AAAGAUCAAGGAUAUGCAACGGCACACAUGAGGAUCACCCAUGUGAUGUACGUUGUGUCGGCAGAAGGUGAGGGUC [JR_Ex5_Sub056] (Eterna round: R97, puzzle: Exclusion 5) | – | – | – | – | 13.8 | 14.3
30 | GAUGAGGUAGGAUAUACGAGAAGAUAGGGUAGAUAGAGAACACAUGAGGAUCACCCAUGUAGAAGGACCAGUAG [Mat - Exclusion 2 - Mod of my Tesla design - D73] (puzzle: Exclusion 2) | – | – | 25.9 | – | – | –
31 | UUUAAGGUAAUUAAGAUCACAUGAGGAUCACCCAUGUAUAUAUAGGAUAUCAGCUCGUUUAGAGCUGAGAAGGAUAUAUACAUA [ExNG3/6-C2] (Eterna round: R96, puzzle: Exclusion NG 3) | 178 | – | – | – | 21.6 | 136
32 | UUAUAAAGUGUGAGGAUAUGCUGGUCCUUGGAUCAGCAGAAGGCACAUGAGGAUCACCCAUGUAAUAUAUUUUU [JL bmx4 3.08] (puzzle: Brourd's mod of Exclusion 4) | – | – | 68.2 | – | – | –
33 | UUUUAACAUGAGGAUCACCCAUGUGAGGAUAUGAUUUUUUUUUUUUUUUUUUUUUUUUUCAGAAGGCACAUUUU [My solution] (puzzle: Exclusion 1) | – | 18 | 64.3 | 42.4 | – | –
34 | UAUUAGCAAGUGAGAUCCGACAUGAGGAUCACCCAUGUGCUCGUCUUAUAAGCUAAUAUAAGAAAACUUAUAUUAGC [Elimod 7 - Jieux - Sensor, turn-off variant 1] (Eterna round: R97, puzzle: Sensor, turn-off variant 1) | – | – | – | – | 242 | 284
